Source: IntAct's records for PubMed 9045636

B1: Proto-oncogene tyrosine-protein kinase LCK (Mus musculus), P06240 (parent)
chain: MGCVCSSNPEDDWMENIDVCENCHYPIVPLDSKISLPIRNGSEVRDPLVTYEGSLPPASPLQDNLVIALHSYEPSHDGDLGFEKGEQLRILEQSGEWWKAQSLTTGQEGFIPFNFVAKANSLEPEPWFFKNLSRKDAERQLLAPGNTHGSFLIRESESTAGSFSLSVRDFDQNQGEVVKHYKIRNLDNGGFYISPRITFPGLHDLVRHYTNASDGLCTKLSRPCQTQKPQKPWWEDEWEVPRETLKLVERLGAGQFGEVWMGYYNGHTKVAVKSLKQGSMSPDAFLAEANLMKQLQHPRLVRLYAVVTQEPIYIITEYMENGSLVDFLKTPSGIKLNVNKLLDMAAQIAEGMAFIEEQNYIHRDLRAANILVSDTLSCKIADFGLARLIEDNEYTAREGAKFPIKWTAPEAINYGTFTIKSDVWSFGILLTEIVTHGRIPYPGMTNPEVIQNLERGYRMVRPDNCPEELYHLMMLCWKERPEDRPTFDYLRSVLDDFFTATEGQYQPQP

Variants of: B1
Conditions: with khdr1_human KHDRBS1, Q07666
khdr1_human KHDRBS1, Q07666, sequence (Q07666 whole entry): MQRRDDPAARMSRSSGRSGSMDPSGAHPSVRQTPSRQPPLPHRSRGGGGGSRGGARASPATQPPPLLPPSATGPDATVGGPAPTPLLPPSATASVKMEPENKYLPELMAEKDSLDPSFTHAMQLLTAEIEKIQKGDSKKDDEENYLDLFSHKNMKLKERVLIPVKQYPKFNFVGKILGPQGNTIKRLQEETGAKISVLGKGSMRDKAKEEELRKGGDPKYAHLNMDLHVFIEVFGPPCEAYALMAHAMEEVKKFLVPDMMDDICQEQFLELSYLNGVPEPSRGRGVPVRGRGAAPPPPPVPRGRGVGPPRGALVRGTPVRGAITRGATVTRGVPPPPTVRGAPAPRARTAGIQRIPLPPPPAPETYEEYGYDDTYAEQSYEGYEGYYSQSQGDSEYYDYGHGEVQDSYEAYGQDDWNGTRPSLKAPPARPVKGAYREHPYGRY
With R154K the “effect of a mutation on the interaction” value was “decreasing interaction”.

Variants of: B1
Conditions: with khdr1_human KHDRBS1, Q07666
Remark: another data set of the same source
For P112K, the “effect of a mutation on the interaction” value was “decreasing interaction”.
